Test results from article PMC5045412, “Inhibition of pro-HGF activation by SRI31215, a novel approach to block oncogenic HGF/MET signaling” (Oncotarget, 2016).
Blank lines part the entries; values can stand above or below the molecule they belong to.

How the values were obtained:
DiFi cells = DiFi cells co-cultured with WI38 fibroblasts, immunoblotting; assay type: cell-based; details: gefitinib 0.5 μM
Procedure: Figure 7 Fibroblasts protect DiFi cells from EGFRi in an HGF-dependent manner DiFi cells were treated with gefitinib (0.5 μM) alone or were co-cultured with WI38 fibroblasts (FIB) in the absence or the presence of SRI 31215 (10 μM) or JNJ38877605 (1 μM). The DiFi cell lysates were isolated after 4 or 24 hours as indicated and examined for the expression of pERK and total ERK, pEGFR and total EGFR, cleaved PARP, β-catenin gelsolin and β-actin by immunoblotting.
Immunoblotting was performed using standard procedures. Membranes were blocked with 5% non-fat milk for 1 hour at RT, and incubated with primary antibodies overnight at 4°C. Primary antibodies used were anti-HGF (R&D Systems), anti-MET, anti-p-MET, anti-p-GAB1, anti-p-AKT, anti-p-ERK1/2, anti-vimentin (Cell Signaling Technology), anti-p-STAT3 (Upstate Cell Signaling Solutions), anti-E-cadherin (BD Transduction Laboratories), anti-β-actin (Sigma). Following washing with TBS-T buffer, membranes were incubated with horseradish peroxidase-conjugated secondary antibodies for 1 hour and then washed with TBS-T. Immunoblots were developed using the chemiluminescent detection system with ECL (Amersham). Protein loading was normalized by probing blots for the expression of β-actin.

RKO cells = experiment: Clonogenic growth and viability of HGF-producing RKO cells with EGFR inhibitors; assay type: cell-based; details: RKO cells, SRI 31215 10 μM, JNJ 38877605 1 μM, HAI-1 20 nM
Procedure: Figure 5 Inhibitors of HGF/MET signaling prevent the innate and acquired resistance to cetuximab A. and B. RKO cells were treated with cetuximab (50 μg/ml) (A) of gefitinib (B) alone, or in combination with SRI 31215 (10 μM), JNJ 38877605 (1 μM) or recombinant HAI-1 (20 nM) as indicated and clonogenic growth was monitored as described in Materials and Methods. C. and D. Caco2 cells were treated with cetuximab or gefitinib alone or in the presence of CM from fibroblasts and SRI 31215 (10 μM) or JNJ 38877605 (1 μM) as indicated. #: p<0.05, compared to control (CTRL); NS: not significant.
Cell titer-glo luminescent cell viability assay kit was purchased from Promega. […] For clonogenic assay, cells were seeded in 6-well plates at a density of 400 cells per well, serum starved overnight, and treated as indicated. After colony formation (8-12 days), cells were stained with crystal violet and the number of colonies was determined using ImageQuantTL (GE Health Care Life Sciences).
Supplementary Figure S3: Inhibition of HGF/MET signaling sensitizes HGF-producing RKO colon cancer cells to gefitinib. A. RKO cells (HGF+) and B. HT29 (HGF-) cells were treated with gefitinib (5 μM) in the absence or the presence of SRI 31215 (10 μM) or JNJ 38877605 (1 μM) as indicated and viability was determined 24 and 72 hours after treatment. # indicates statistical significance compared to samples treated with gefitinib alone as determined by Students’ t-test (p<0.05).
(also on this page, place not known: www.impactjournals.com/oncotarget/ Oncotarget, Materials 2016 Supplementary (HGF +) (HGF -)) […]

recombinant human HGFA = biological target: T1, recombinant human HGFA (Homo sapiens, UniProt Q04756); experiment: Proteolytic activation of pro-HGF by HGFA (immunoblotting); assay type: biochemical; details: SRI 31215 10 μM, HAI-1 20 nM, HGFA 1 nM
T1 construct: purchased R&D Systems
T1 sequence (Q04756 408-655 limits assumed): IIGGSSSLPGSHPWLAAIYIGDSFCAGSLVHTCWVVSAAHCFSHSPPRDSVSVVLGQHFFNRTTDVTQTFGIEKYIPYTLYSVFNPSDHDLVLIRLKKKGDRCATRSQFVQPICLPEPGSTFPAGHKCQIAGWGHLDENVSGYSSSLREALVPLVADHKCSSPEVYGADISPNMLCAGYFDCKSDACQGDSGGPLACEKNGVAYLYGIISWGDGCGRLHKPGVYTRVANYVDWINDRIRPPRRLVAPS
T1 sequence (Q04756 373-407 partner limits assumed): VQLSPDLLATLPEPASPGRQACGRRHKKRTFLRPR
Procedure: Recombinant human HAI-1, recombinant human HGFA, and recombinant human HGF propeptide (pro-HGF) were purchased from R&D Systems. SRI 31215 (10 μM) or recombinant human HAI-1 (20 nM) were mixed with activated recombinant human HGFA pro-peptide (1nM) in TNC buffer (pH 8.0) and incubated at room temperature for 30 minutes. Recombinant human pro-HGF (40 ng) was added and incubated at 37°C for 1 hour. The reaction was stopped by SDS-PAGE gel sample buffer and samples were boiled and separated by 12% PAGE. Proteins were transferred onto nitrocellulose membrane, blocked with 5% milk and immunoblotted using antibodies that recognize pro-HGF as well as α and β chains of activated HGF.

Molecule: COc1cc2ncnc(Nc3ccc(F)c(Cl)c3)c2cc1OCCCN1CCOCC1 [Gefitinib]
- levels of β-catenin (DiFi cells): reduced

- HGFA-induced cleavage of pro-HGF into alpha and beta chains (recombinant human HGFA): inhibited
B1: HAI-1: recombinant human HAI-1, endogenous inhibitor of HGF activation, positive control (protein, UniProt O43278 36-529, looked up)
Kunitz-type protease …: GPPPAPPGLPAGADCLNSFTAGVPGFVLDTNASVSNGATFLESPTVRRGWDCVRACCTTQNCNLALVELQPDRGEDAIAACFLINCLYEQNFVCKFAPREGFINYLTREVYRSYRQLRTQGFGGSGIPKAWAGIDLKVQPQEPLVLKDVENTDWRLLRGDTDVRVERKDPNQVELWGLKEGTYLFQLTVTSSDHPEDTANVTVTVLSTKQTEDYCLASNKVGRCRGSFPRWYYDPTEQICKSFVYGGCLGNKNNYLREEECILACRGVQGGPLRGSSGAQATFPQGPSMERRHPVCSGTCQPTQFRCSNGCCIDSFLECDDTPNCPDASDEAACEKYTSGFDELQRIHFPSDKGHCVDLPDTGLCKESIPRWYYNPFSEHCARFTYGGCYGNKNNFEEEQQCLESCRGISKKDVFGLRREIPIPSTGSVEMAVAVFLVICIVVVVAILGYCFFKNQRKDFHGHHHHPPPTPASSTVSTTEDTEHLVYNHTTRPL
- clonogenic growth, agent alone (RKO cells): did not impact
- clonogenic growth, combination with cetuximab (RKO cells; cetuximab 50 μg/ml): significant decrease
